Measurements: IntAct's records for PubMed 19270079

Biological target: pcd15_mouse Pcdh15 (UniProt Q99PJ1)
Sequence (Q99PJ1 whole entry): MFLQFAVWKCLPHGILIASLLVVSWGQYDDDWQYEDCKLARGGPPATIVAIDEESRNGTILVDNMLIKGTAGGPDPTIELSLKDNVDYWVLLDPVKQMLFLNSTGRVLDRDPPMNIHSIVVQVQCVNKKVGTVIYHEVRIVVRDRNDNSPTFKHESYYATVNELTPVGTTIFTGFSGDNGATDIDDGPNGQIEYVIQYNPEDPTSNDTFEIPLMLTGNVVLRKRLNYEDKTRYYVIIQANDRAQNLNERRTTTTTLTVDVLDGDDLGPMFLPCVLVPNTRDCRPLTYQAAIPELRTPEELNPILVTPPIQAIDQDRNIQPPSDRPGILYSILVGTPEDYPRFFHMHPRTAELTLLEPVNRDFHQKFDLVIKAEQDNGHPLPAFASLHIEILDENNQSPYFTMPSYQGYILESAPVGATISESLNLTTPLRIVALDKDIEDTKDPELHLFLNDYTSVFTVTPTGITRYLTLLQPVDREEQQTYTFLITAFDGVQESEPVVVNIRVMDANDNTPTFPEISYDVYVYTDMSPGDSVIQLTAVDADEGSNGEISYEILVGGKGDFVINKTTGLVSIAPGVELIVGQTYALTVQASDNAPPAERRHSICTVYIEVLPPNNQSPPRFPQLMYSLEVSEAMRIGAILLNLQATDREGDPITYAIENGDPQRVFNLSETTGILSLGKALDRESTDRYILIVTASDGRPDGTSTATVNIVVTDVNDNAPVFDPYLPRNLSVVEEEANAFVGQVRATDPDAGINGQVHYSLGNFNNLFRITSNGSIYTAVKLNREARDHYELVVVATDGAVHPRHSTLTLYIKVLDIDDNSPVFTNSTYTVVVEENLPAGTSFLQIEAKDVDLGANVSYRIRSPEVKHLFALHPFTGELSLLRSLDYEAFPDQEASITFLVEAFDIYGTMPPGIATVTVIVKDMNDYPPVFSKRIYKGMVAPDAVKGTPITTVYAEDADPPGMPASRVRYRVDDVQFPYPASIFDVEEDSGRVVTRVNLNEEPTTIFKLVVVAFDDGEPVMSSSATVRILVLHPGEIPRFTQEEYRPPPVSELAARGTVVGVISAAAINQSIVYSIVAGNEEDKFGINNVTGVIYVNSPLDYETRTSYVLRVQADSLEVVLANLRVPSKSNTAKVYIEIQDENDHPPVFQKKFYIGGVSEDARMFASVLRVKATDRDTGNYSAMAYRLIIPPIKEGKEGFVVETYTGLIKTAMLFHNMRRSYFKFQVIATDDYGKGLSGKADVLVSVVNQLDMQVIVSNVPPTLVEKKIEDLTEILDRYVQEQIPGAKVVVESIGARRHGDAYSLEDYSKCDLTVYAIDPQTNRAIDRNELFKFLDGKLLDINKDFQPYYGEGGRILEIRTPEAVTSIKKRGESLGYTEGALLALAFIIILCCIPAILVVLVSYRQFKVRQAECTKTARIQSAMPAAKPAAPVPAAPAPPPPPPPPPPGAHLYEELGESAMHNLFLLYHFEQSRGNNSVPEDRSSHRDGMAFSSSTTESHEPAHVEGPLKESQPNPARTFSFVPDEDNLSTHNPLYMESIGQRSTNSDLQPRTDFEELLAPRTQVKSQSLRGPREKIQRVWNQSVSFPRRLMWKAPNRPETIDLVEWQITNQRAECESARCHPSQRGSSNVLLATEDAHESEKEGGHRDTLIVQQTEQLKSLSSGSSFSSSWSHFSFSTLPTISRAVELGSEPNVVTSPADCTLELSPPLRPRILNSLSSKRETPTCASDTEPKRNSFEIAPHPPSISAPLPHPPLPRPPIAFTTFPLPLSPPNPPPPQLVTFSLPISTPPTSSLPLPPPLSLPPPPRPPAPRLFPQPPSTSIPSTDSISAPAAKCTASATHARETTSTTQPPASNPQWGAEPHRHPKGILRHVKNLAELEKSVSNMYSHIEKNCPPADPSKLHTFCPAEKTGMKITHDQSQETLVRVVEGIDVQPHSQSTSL

Effect of a mutation on the interaction, decreasing interaction:
Cadherin-23 (Mus musculus), Q99PF4-1 D124G
Cadherin-23 (Mus musculus), Q99PF4-1 E737V
Cadherin-23 (Mus musculus), Q99PF4-1 R1060W
